Data reported in patent US20140056907A1 (Regeneron, published 2014).

Experiments:
[1] = target: T1, mouse ASIC1/ASIC3 channels (co-expressed mouse ASIC1a and mouse ASIC3) (mouse, UniProt Q6NXK8 1-526; Q6X1Y6 1-530); test: FACS, 3T3/mASIC1/3 cells, 10 nM antibody
T1 construct: whole, on cells; 3T3 cells co-expressing both subunits; also called 3T3/mASIC1/3
T1 sequence (looked up) 1: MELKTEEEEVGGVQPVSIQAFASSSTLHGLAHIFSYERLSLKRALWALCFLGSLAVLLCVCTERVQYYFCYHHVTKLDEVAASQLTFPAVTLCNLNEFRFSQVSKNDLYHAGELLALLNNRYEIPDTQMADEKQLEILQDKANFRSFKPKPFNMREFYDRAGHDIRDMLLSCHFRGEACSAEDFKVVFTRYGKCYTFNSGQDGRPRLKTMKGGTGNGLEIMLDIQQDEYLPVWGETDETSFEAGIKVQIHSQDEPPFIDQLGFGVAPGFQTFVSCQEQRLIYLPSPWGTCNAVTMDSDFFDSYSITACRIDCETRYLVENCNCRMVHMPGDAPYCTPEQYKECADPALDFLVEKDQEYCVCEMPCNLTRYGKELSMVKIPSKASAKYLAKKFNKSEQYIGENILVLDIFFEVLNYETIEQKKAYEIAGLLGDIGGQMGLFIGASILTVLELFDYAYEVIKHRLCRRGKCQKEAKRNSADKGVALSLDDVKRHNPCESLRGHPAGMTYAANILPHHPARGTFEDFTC
T1 sequence (looked up) 2: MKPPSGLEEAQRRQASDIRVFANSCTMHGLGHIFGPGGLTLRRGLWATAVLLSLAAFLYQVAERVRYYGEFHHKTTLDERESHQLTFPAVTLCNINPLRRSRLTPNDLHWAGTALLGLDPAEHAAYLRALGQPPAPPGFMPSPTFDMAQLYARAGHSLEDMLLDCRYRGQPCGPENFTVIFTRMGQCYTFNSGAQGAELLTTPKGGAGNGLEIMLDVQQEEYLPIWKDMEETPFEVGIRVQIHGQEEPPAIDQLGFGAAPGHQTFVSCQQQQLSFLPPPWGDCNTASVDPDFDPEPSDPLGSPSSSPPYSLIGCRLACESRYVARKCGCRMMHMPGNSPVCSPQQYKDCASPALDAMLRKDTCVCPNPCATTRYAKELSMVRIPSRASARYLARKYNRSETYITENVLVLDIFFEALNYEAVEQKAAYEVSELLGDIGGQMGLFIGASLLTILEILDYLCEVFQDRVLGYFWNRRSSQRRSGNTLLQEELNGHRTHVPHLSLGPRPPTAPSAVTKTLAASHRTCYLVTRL
Procedure: Antibody binding was determined using flow cytometry (FACS).
(§1) To perform the FACS binding experiments, adherent cells were collected with cold Millipore Accutase 3-5 minutes, spun and resuspended in ice-cold FACS buffer (PBS, 2% HI-FBS and 0.09% Na-azide). Anti-ASIC1 antibody at final concentrations of 10 nM was added for 20-30 minutes on ice. Cells were washed with 900 μL ice-cold FACS buffer, spun, and resuspended in 100 μL ice-cold FACS buffer. A secondary antibody which recognizes human Fc (Jackson Immuno Research, #109-136-098) and is conjugated to allophycocyanin, was then added to the cell mixture at a final concentration of 2.5 ug/mL. After incubating for 20 minutes on ice, the cells were washed and resuspended in FACS buffer, then sorted and analyzed on a flow cytometer (FACSCanto II, BD Biosciences, San Jose, Calif.) to determine relative binding by the candidate antibodies to the tested cell lines. Histograms of cells stained with anti-ASIC1 antibodies were compared with those of cells stained with secondary antibody alone. Percentage of ASIC1 signal over secondary antibody alone was calculated using FlowJo software (Tree Star, Ashland, Oreg.).

human ASIC1 = target: T2, human ASIC1 (human, UniProt P78348 1-528); test: cell-based or functional assay
T2 sequence: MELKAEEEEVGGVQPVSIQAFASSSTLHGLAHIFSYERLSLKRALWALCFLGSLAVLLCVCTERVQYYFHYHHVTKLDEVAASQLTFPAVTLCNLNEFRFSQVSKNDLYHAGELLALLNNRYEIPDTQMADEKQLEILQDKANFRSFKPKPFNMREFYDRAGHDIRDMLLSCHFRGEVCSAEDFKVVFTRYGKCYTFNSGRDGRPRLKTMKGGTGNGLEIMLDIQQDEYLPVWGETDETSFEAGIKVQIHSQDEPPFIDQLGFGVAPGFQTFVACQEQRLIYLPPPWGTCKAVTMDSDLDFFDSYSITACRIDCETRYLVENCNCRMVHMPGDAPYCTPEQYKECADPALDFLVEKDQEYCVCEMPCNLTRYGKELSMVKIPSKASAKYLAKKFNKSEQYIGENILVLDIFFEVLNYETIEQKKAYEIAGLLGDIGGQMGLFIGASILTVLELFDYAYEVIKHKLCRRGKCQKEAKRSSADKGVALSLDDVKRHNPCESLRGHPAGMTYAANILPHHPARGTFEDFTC

human ASIC3 = target: T3, human ASIC3 (human, UniProt Q9UHC3 1-531); test: FACS, 3T3/hASIC3 cells
T3 construct: whole, on cells; Expressed on 3T3 cells (3T3/hASIC3) or HEK293 cells (HEK/hASIC3-QCells); also called hASIC3
T3 sequence (looked up): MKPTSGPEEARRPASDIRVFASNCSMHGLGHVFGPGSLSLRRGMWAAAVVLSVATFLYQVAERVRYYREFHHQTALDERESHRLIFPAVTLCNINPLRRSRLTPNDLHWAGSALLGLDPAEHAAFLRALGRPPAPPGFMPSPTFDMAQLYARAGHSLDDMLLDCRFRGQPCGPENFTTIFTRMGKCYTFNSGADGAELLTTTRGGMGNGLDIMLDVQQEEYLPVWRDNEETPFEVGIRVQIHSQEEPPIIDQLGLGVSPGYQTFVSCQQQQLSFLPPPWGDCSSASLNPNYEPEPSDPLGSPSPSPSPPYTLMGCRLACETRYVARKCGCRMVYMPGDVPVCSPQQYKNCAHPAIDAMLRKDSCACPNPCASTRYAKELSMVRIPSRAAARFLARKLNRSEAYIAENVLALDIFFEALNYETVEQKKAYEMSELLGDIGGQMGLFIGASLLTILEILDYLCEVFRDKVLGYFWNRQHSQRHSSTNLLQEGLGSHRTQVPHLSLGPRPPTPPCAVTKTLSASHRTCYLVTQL
Source text: (§2) For these experiments, four cell lines were constructed: (a) a mouse fibroblast 3T3 cell line stably transfected to overexpress full length human ASIC3 (3T3/hASIC3; amino acids 1-531 of NCBI accession number NP_{—}004760.1), (b) a 3T3 cell line stably transfected to co-express full length human ASIC1a and human ASIC3 (3T3/hASIC1/3; amino acids 1-528 of NCBI accession number NP_{—}001086.2 and amino acids 1-531 of NCBI accession number NP_{—}004760.1), (c) […] a stably transfected 3T3 cell line expressing the full-length mouse ASIC3 channel (3T3/mASIC3; amino acids 1-530 of NCBI accession number NP_{—}892045.2), and (d) a 3T3 cell line stably transfected to co-express full length mouse ASIC1a and mouse ASIC3 (3T3/mASIC1/3; amino acids 1-526 of NCBI accession number NP_{—}033727 and amino acids 1-530 of NCBI accession number NP_{—}892045.2). Antibody binding was determined using flow cytometry (FACS).
as §1

mouse ASIC3 = target: T4, mouse ASIC3 (mouse, UniProt Q6X1Y6 1-530); test: FACS, 3T3/mASIC3 cells
T4 construct: whole, on cells; Expressed on stably transfected 3T3 cells (3T3/mASIC3); also called mASIC3
T4 sequence (looked up): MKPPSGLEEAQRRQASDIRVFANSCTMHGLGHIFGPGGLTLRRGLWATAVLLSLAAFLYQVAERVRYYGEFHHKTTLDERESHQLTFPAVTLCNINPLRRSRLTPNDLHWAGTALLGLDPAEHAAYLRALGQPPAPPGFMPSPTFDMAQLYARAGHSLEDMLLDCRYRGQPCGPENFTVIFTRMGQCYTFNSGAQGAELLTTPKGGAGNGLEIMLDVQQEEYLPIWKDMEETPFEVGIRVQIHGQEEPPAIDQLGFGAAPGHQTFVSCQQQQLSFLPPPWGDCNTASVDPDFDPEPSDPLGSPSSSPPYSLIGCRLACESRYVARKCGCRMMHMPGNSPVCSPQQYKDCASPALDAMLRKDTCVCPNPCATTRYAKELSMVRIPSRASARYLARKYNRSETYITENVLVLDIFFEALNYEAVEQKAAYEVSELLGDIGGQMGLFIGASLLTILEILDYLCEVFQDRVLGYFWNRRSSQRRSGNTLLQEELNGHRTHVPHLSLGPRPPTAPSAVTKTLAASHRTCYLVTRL
Source text: as §2
To perform the FACS binding experiments, adherent cells were collected with cold Millipore Accutase 3-5 minutes, spun and resuspended in ice-cold FACS buffer (PBS, 2% HI-FBS and 0.09% Na-azide). […] After incubating for 20 minutes on ice, the cells were washed and resuspended in FACS buffer, then sorted and analyzed on a flow cytometer (FACSCanto II, BD Biosciences, San Jose, Calif.) to determine relative binding by the candidate antibodies to the tested cell lines. […]

B1: H4H6718N (antibody, human IgG4, V domains shown)
VH: EVQLLESGGGLVQPGGSLRLSCAASGFTFSSFAMSWVRQAPGKGLEWVSGISGSGGGTHYADSVKGRFTISRDNSKNMVYLQMNSLRAEDTAAYYCAKEAYKWQPWGQGTLVTVSS
VL: DIQMTQSPSTLSASVGDRVIITCRASQRISSWLAWYQQKPGKAPNLLIYKASILESGVPSRFSGSGSGTEFTLTISSLQPDDFATYYCQQYNSYSYTFGQGTKLEIK
Question: What does the source list for B1?
Answer: binding result [1]: binds; apparent IC50, human ASIC1 current, Q-Patch (human ASIC1): < 1 nM; binding result (human ASIC3): no binding (tested: 10 nM; gated lower than 1%); binding result (mouse ASIC3): no binding (tested: 10 nM)
